US20140087995A1 (published 2014)
Changes are numbered by the printed parent chain. Numbered stars: 1 amine (or outer) side, 2 acyl side, 3 side chain; on linkers, the order of the positions; unused ones are H or OH. Bridge positions count the residues as written; N and C are the ends. * marks the point of attachment. C20 diacid = O=C(O)CCCCCCCCCCCCCCCCCCC(=O)*; γGlu = O=C(O)[C@H](CCC(=O)[*:2])N[*:1]

T1: human calcitonin receptor (human, UniProt P30988 25-474)
T1 sequence (looked up): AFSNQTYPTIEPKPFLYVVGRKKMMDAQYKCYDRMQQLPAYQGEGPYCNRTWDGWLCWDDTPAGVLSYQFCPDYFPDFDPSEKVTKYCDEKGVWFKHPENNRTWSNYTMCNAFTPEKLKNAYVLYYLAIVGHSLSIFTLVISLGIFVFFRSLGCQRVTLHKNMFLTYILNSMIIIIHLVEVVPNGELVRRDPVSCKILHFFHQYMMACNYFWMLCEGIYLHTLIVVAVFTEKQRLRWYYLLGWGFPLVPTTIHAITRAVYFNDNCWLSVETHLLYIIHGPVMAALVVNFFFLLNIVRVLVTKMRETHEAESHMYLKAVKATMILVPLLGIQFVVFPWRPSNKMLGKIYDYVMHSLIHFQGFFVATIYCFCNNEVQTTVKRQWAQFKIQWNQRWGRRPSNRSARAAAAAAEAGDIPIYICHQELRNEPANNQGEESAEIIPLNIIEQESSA

T2: human amylin receptor (amylin 3(a) receptor: human calcitonin receptor plus RAMP-3) (human, UniProt P30988 25-474; O60896 24-148, limits assumed)
T2 sequence (looked up) 1: T1 sequence (looked up)
T2 sequence (looked up) 2: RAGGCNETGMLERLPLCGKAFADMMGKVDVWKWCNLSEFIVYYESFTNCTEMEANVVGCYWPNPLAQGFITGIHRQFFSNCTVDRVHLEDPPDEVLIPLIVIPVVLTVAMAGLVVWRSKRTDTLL

B1: N^α1-[(4S)-4-carboxy-4-(19-carboxynonadecanoylamino)butanoyl]-[Arg17,Pro21,Pro27,Arg34]-h-amylin (peptide)
peptide: KCNTATCATQRLANFLRHSSPNFGAIPSSTNVGRNTY
modifications: C20 diacid-gGlu on the alpha amino group of the N-terminal residue; Cys2-Cys7 disulfide and C-terminal amide as in human amylin
notes: also called compound 39
B2: N^α1-[(4S)-4-carboxy-4-(19-carboxynonadecanoylamino)butanoyl]-[Glu14,Arg17,Pro21,Pro27,Arg35]-h-amylin (peptide)
peptide: {C20 diacid-γGlu}-KCNTATCATQRLAEFLRHSSPNFGAIPSSTNVGSRTY-NH2
modifications: disulfide 2-7
SMILES: CC[C@H](C)[C@H](NC(=O)[C@H](C)NC(=O)CNC(=O)[C@H](Cc1ccccc1)NC(=O)[C@H](CC(N)=O)NC(=O)[C@@H]1CCCN1C(=O)[C@H](CO)NC(=O)[C@H](CO)NC(=O)[C@H](Cc1c[nH]cn1)NC(=O)[C@H](CCCNC(=N)N)NC(=O)[C@H](CC(C)C)NC(=O)[C@H](Cc1ccccc1)NC(=O)[C@H](CCC(=O)O)NC(=O)[C@H](C)NC(=O)[C@H](CC(C)C)NC(=O)[C@H](CCCNC(=N)N)NC(=O)[C@H](CCC(N)=O)NC(=O)[C@@H](NC(=O)[C@H](C)NC(=O)[C@@H]1CSSC[C@H](NC(=O)[C@H](CCCCN)NC(=O)CC[C@H](NC(=O)CCCCCCCCCCCCCCCCCCC(=O)O)C(=O)O)C(=O)N[C@@H](CC(N)=O)C(=O)N[C@@H]([C@@H](C)O)C(=O)N[C@@H](C)C(=O)N[C@@H]([C@@H](C)O)C(=O)N1)[C@@H](C)O)C(=O)N1CCC[C@H]1C(=O)N[C@@H](CO)C(=O)N[C@@H](CO)C(=O)N[C@H](C(=O)N[C@@H](CC(N)=O)C(=O)N[C@H](C(=O)NCC(=O)N[C@@H](CO)C(=O)N[C@@H](CCCNC(=N)N)C(=O)N[C@H](C(=O)N[C@@H](Cc1ccc(O)cc1)C(N)=O)[C@@H](C)O)C(C)C)[C@@H](C)O
notes: also called compound 16
B3: N^α1-[(4S)-4-carboxy-4-(19-carboxynonadecanoylamino)butanoyl]-[Arg17,Pro21,Pro27,Pro31,Glu35]-h-amylin (peptide)
peptide: {C20 diacid-γGlu}-KCNTATCATQRLANFLRHSSPNFGAIPSSTPVGSETY-NH2
modifications: disulfide 2-7
SMILES: CC[C@H](C)[C@H](NC(=O)[C@H](C)NC(=O)CNC(=O)[C@H](Cc1ccccc1)NC(=O)[C@H](CC(N)=O)NC(=O)[C@@H]1CCCN1C(=O)[C@H](CO)NC(=O)[C@H](CO)NC(=O)[C@H](Cc1c[nH]cn1)NC(=O)[C@H](CCCNC(=N)N)NC(=O)[C@H](CC(C)C)NC(=O)[C@H](Cc1ccccc1)NC(=O)[C@H](CC(N)=O)NC(=O)[C@H](C)NC(=O)[C@H](CC(C)C)NC(=O)[C@H](CCCNC(=N)N)NC(=O)[C@H](CCC(N)=O)NC(=O)[C@@H](NC(=O)[C@H](C)NC(=O)[C@@H]1CSSC[C@H](NC(=O)[C@H](CCCCN)NC(=O)CC[C@H](NC(=O)CCCCCCCCCCCCCCCCCCC(=O)O)C(=O)O)C(=O)N[C@@H](CC(N)=O)C(=O)N[C@@H]([C@@H](C)O)C(=O)N[C@@H](C)C(=O)N[C@@H]([C@@H](C)O)C(=O)N1)[C@@H](C)O)C(=O)N1CCC[C@H]1C(=O)N[C@@H](CO)C(=O)N[C@@H](CO)C(=O)N[C@H](C(=O)N1CCC[C@H]1C(=O)N[C@H](C(=O)NCC(=O)N[C@@H](CO)C(=O)N[C@@H](CCC(=O)O)C(=O)N[C@H](C(=O)N[C@@H](Cc1ccc(O)cc1)C(N)=O)[C@@H](C)O)C(C)C)[C@@H](C)O
notes: also called compound 28
B4: N^α1-[(4S)-4-carboxy-4-(19-carboxynonadecanoylamino)butanoyl]-[Arg17,Pro21,Pro27,His34]-h-amylin (peptide)
peptide: B1 peptide with R34H
modifications: C20 diacid-gGlu on the alpha amino group of the N-terminal residue; Cys2-Cys7 disulfide and C-terminal amide as in human amylin
notes: also called compound 40
B5: N^α1-[(4S)-4-carboxy-4-(19-carboxynonadecanoylamino)butanoyl]-[Arg17,Pro21,Pro27,Glu35]-h-amylin (peptide)
peptide: B1 peptide with R34S, N35E
modifications: C20 diacid-gGlu on the alpha amino group of the N-terminal residue; Cys2-Cys7 disulfide and C-terminal amide as in human amylin
notes: also called compound 23

target: T1, human calcitonin receptor; assay: cell-based or functional assay

Row | Ratio hCT/hAmylin funct. (hCTR EC50 against hAmylin-R EC50) | hCTR funct. EC50 | Binder
1 | 11.6 | 2.52 nM | B1
2 | 6.1 | 2.21 nM | B2
3 | 9.2 | 2.03 nM | B3
4 | 16.4 | 2.68 nM | B4
5 | 8.9 | 3.02 nM | B5

target: T2, human amylin receptor (amylin 3(a) …); assay: cell-based or functional assay

Row | hAmylin-R funct. EC50 | Binder
6 | 0.217 nM | B1
7 | 0.363 nM | B2
8 | 0.22 nM | B3
9 | 0.164 nM | B4
10 | 0.34 nM | B5
